Results on one molecule are retold here after US20260022175A1 (Chugai, published 2026).

Substitutions are numbered along the chain they refer to.

For assay [1], the target named is T1, human FcRn (human, UniProt P55899 24-290; P61769 21-119).
T1 construct: Prepared by the method of WO 2010/107110; also called hFcRn
In words: SPR; KD of 04H1389-G1m/04L1305-k0MT divided by KD of variant.

For assay [2], the target named is T2, human FcγRIIa R allotype extracellular domain with C-terminal His-tag (human, UniProt P12318 34-217).
T2 construct: extracellular domain; also called hFcγR IIa R
T2 sequence (looked up): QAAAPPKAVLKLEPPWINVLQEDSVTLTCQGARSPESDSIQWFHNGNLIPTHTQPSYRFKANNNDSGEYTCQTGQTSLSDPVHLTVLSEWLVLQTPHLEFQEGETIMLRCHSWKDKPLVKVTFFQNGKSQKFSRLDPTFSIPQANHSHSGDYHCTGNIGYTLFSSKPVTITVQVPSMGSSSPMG
Described as above.

The target of assay [3] is T3, human FcγRIIa H allotype extracellular domain with C-terminal His-tag (human, UniProt P12318 34-217).
T3 construct: extracellular domain; also called hFcγR IIa H
T3 sequence (looked up): T2 sequence (looked up) with R134H
The assay is described as above.

Assay [4] concerns the target T4, human FcγRIIIa F allotype extracellular domain with C-terminal His-tag (human, UniProt P08637 17-208).
T4 construct: extracellular domain; also called hFcγR IIIa F
Described as above.

Assay [5] has as its target T5, human FcγRIa extracellular domain with C-terminal His-tag (human, UniProt P12314 16-292).
T5 construct: extracellular domain; also called hFcγR Ia; hFcγRIa
Described as above.

The target in assay [6] is T6, human FcγRIIIa V allotype extracellular domain with C-terminal His-tag (human, UniProt P08637 17-208).
T6 construct: extracellular domain; also called hFcγR IIIa V
T6 sequence (P08637 17-208 F176V): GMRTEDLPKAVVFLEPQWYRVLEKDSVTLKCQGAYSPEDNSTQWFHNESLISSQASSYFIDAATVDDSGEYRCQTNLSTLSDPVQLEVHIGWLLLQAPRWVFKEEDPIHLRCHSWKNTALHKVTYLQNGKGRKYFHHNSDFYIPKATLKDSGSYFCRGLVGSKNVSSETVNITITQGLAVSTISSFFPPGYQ
The description is as above.

Assay [7] addresses T2, human FcγRIIa R allotype extracellular …. Put plainly: SPR Biacore T200, captured Ab, pH 7.4. A general note: In SPR one partner is held on a chip, and binding of the other changes the refractive index at the surface.
Assay [8] deals with T3, human FcγRIIa H allotype extracellular …. Put plainly: SPR Biacore T200, captured Ab, pH 7.4.
Assay [9] concerns the target T4, human FcγRIIIa F allotype extracellular …. In words: SPR Biacore T200, captured Ab, pH 7.4.
The target in assay [10] is T5, human FcγRIa extracellular domain with …. Put plainly: SPR Biacore T200, captured Ab, pH 7.4.
In assay [11] the target is T7, human FcγRIIb extracellular domain with C-terminal His-tag (human, UniProt P31994 43-217).
T7 construct: extracellular domain; also called hFcγR IIb
T7 sequence (looked up): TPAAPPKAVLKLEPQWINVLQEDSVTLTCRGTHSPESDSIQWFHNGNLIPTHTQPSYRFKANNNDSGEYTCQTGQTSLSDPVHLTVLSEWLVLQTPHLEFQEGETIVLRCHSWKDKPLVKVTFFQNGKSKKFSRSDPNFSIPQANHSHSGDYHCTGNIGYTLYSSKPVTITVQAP
Put plainly: SPR; binding amount divided by that of 04H1389-G1m/04L1305-k0MT.

The target in assay [12] is T7, human FcγRIIb extracellular domain with …. In words: SPR; FcγRIIb bound amount per unit captured Ab.
Assay [13] has as its target T1, human FcRn. In words: SPR Biacore T200, captured Ab, pH 6.0, steady state.
The target of assay [14] is T6, human FcγRIIIa V allotype extracellular …. In words: SPR Biacore T200, captured Ab, pH 7.4, steady state model.

T5 sequence (P12314 16-292): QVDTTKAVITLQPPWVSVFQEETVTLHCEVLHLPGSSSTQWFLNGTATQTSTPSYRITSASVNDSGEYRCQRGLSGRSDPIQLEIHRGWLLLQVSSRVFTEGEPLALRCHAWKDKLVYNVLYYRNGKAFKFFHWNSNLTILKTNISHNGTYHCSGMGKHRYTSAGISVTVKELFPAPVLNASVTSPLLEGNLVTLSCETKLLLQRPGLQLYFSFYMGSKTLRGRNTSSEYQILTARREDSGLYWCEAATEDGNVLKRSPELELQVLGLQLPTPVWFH
T4 sequence (P08637 17-208): as the sequence (P08637 17-208 F176V) above, with V160F counted along it
T1 sequence (P55899 24-290 limits assumed, chain 1 of 2): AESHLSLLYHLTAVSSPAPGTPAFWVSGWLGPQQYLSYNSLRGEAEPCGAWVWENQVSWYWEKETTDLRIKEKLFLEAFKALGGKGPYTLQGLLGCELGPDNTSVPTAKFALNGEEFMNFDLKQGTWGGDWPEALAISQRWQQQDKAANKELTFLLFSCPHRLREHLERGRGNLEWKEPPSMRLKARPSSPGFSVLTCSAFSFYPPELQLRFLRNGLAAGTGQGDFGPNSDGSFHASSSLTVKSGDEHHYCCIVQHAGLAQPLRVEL
T1 sequence (P61769 21-119 limits assumed, chain 2 of 2): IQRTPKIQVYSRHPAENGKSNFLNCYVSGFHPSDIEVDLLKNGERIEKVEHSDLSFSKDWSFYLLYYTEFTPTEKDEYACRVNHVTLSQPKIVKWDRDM

B1: 04H1389-G1m/04L1305-k0MT (antibody, human IgG1, kappa)
heavy: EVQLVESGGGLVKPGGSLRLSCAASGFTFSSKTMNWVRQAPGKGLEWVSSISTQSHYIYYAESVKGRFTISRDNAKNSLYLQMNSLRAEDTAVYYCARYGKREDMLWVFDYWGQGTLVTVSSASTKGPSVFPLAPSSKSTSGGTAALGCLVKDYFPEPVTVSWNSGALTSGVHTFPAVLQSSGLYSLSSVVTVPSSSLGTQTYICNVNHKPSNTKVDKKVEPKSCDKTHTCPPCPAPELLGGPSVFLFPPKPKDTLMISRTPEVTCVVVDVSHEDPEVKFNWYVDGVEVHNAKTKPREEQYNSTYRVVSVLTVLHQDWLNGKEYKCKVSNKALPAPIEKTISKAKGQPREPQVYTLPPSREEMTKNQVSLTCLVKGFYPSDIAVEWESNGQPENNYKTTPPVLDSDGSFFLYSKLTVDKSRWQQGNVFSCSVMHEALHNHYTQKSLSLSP
light: DIVMTQSPLSLPVTPGEPASISCDGPSTGVGDYNYVHWYQQKPGQAPRLLIYFTSKKPSGVPDRFSGSGSGTDFTLKISRVEAEDVGVYYCQTYAAPLGPMFGQGTKLEIKRTVAAPSVFIFPPSDEQLKSGTASVVCLLNNFYPREAKVQWKVDNALQSGNSQESVTEQDSKDSTYSLSSTLTLSKADYEKHKVYACEVTHQGLSSPVTKSFNRGEC
As to B1, in [1], the “Relative value to KD between G1m and hFcRn” value was 1. Also, the “Relative value to KD between G1m and hFcγRs” value in assay [2], in assay [3], in [4], in [5] and in [6] was 1 each time. In addition, the Kd in assay [7] stood at 1600 nM; in assay [8] it was 1100 nM; in [9] it was 690 nM; in assay [10] it was 0.069 nM; in assay [13] it was 1000 nM; in assay [14] it was 880 nM. The Relative binding amount in [11] worked out at 1. The molecule further displayed a Binding amount in [12] of 0.011.

In general, Kd refers to a measure of binding affinity in units of concentration.
